Earlier results, collected in paper PMC11430116.

Target: VDAC1 (Homo sapiens) (UniProt P21796)
UniProt P21796, sequence (P21796 2-283): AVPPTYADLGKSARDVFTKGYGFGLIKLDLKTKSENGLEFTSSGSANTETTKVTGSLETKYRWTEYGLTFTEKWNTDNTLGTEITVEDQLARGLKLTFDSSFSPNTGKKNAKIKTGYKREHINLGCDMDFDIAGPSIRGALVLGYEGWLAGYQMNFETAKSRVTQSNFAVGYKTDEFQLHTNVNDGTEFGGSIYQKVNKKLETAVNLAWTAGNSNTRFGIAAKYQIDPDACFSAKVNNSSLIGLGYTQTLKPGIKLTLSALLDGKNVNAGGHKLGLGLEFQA

Kd: 950 nM
Substance: MAVS (from UniProt Q7Z434)
